± gives the uncertainty stated by the source.
Assay: amyloid nucleation score (Sup35N fusion, yeast selection) (log enrichment); library NNK1; higher = more nucleation; inactive = no reads after selection
In short: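 The nucleation score is the DiMSum log enrichment of output over input reads, centred on the mode score of non-aggregating sequences. Only sequences with 100 or more input reads were scored, using Illumina sequencing of input and output plasmid inserts. Psi-negative yeast expressing Sup35N fused to peptides of 20 random codons were induced 24 hours with 100 μM copper sulfate and grown 7 days at 30°C on medium lacking adenine and uracil.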

First: TCGLHQPFLGLFVSSSSIMT
Second: TCHSKSVCCLYGLCGGPEWG
The amyloid nucleation score of the first is lower: 0.175 ± 0.41 for the first, 6.453 ± 0.055 for the second.

TCLADLDWSRGGGYYPHRLC and TCLHYAVCMRSLVSQSALFV are within error of each other in amyloid nucleation score: 0.372 ± 1.2 for the first, -0.771 ± 1.7 for the second.

TCLMRSRLACMFVRINEW and TCLTY are within error of each other in amyloid nucleation score: 1.19 ± 0.62 for the first, -0.846 ± 2.4 for the second.

TCNNRSSSCR and TCRIVVGSSCFRSTVFSFLY are within error of each other in amyloid nucleation score: 1.1 ± 0.61 for the first, 1.45 ± 0.68 for the second.

First: TCRVEMPSCCCFSGIVGCDR
Second: TCSLNLYLDSDVFLCLCCLW
The amyloid nucleation score of the first is lower: 3.53 ± 0.067 for the first, 5.65 ± 0.074 for the second.

Going from TDAPP to TDCGSTMNGGCINMCVCGHR, the amyloid nucleation score rises from 0.126 ± 1.1 to 7.422 ± 0.069.

First: TDCQRYI
Second: TDFPELWSNLFQPNGFRYGL
The amyloid nucleation score of the first is higher: 1.6 ± 0.54 for the first, 0.114 ± 0.92 for the second.

TDGTLIGSY and TDLKLWH are within error of each other in amyloid nucleation score: 0.128 ± 0.44 for the first, 0.136 ± 1.2 for the second.

Compared with TDSILKRYGMSFDFWRSWRN, TEFSNAPPHTSAMVAYVLSY is lower in amyloid nucleation score: 0.76 ± 0.23 for the first, -1.52 ± 1.7 for the second.

First: TERFMYFKNLFVSSWTSHG
Second: TFAFISLDMVWLASAH
The amyloid nucleation score of the first is higher: 1.51 ± 0.14 for the first, -0.051 ± 0.26 for the second.

TFCRLISGPKIRL and TFGDWHKLRWRRSQPKCWSG are within error of each other in amyloid nucleation score: -0.058 ± 0.42 for the first, 0.299 ± 0.36 for the second.

Compared with TFGINRYNFRISARIGQVCI, TFLIFDLN is higher in amyloid nucleation score: -0.284 ± 0.22 for the first, 4.56 ± 0.062 for the second.

TFSFFDRVLSLFLN and TFTGDKIPIYSGVTVMASGM are within error of each other in amyloid nucleation score: -0.179 ± 0.44 for the first, 0.715 ± 0.84 for the second.

Compared with TFTMSWLK, TFTWGRMRSSSVDSCVKSWA is lower in amyloid nucleation score: 3.22 ± 0.078 for the first, 1.2 ± 0.37 for the second.

Going from TFVCIMFLDSSFSSENYGRL to TFVSL, the amyloid nucleation score falls from 1.7 ± 0.16 to 0.332 ± 0.49.

TFVYVKASLSSTIAASYVAQ and TFYVRDRAGCPW are within error of each other in amyloid nucleation score: 1.34 ± 0.27 for the first, 1.33 ± 0.73 for the second.

First: TGCHKS
Second: TGDRCWLFEGYAFKEHCFAD
The amyloid nucleation score of the first is lower: 0.915 ± 0.97 for the first, 2.54 ± 0.13 for the second.

TGLSSYM and TGLVWYYCHSHRWNFRPCQW are within error of each other in amyloid nucleation score: -0.701 ± 0.97 for the first, 0.173 ± 0.55 for the second.

Compared with TGQACAWGGSVILTVSCDRY, TGRSIMPLSYRTYCIDEFVS is lower in amyloid nucleation score: 2.43 ± 0.12 for the first, 0.004 ± 0.3 for the second.

TGRVFLLYAAQ and THNWNNSYSWSPPDALVSCK are within error of each other in amyloid nucleation score: -0.368 ± 0.88 for the first, 0.263 ± 0.51 for the second.

TIDKNNMESFITGFFGVRIL and TILMASTSYFIPSLP are within error of each other in amyloid nucleation score: 1.3 ± 0.4 for the first, 1.38 ± 0.21 for the second.

First: TISKLGQPYRRNSKPL
Second: TISSLNLTRLSLDIFDFQSQ
The amyloid nucleation score of the first is lower: -0.378 ± 0.41 for the first, 3.25 ± 0.21 for the second.

Compared with TKCGIAYFTQICLVPDVSNS, TKCIINEIVDDG is lower in amyloid nucleation score: 7.04 ± 0.085 for the first, -1.35 ± 2.4 for the second.

TKTSTSFGRVKPVN and TLCFQTISPRRPQLRWTWAH are within error of each other in amyloid nucleation score: 0.793 ± 0.85 for the first, 0.875 ± 0.61 for the second.

Going from TLCIVNIGSFVEDEKGDN to TLFCYADMWYNLYHRIVKVR, the amyloid nucleation score falls from 7.19 ± 0.073 to 1.52 ± 0.48.

TLFYFMACGQLLFGKRWNWF and TLLPIKHSCHGNWINQLYGT are within error of each other in amyloid nucleation score: 0.095 ± 0.58 for the first, -0.485 ± 0.32 for the second.

Compared with TLMRCVFLLYYPCGYIKSDL, TLPTKTTPSAFAVNEVTFLT is lower in amyloid nucleation score: 0.551 ± 0.31 for the first, -0.573 ± 0.4 for the second.

TLRLAREGWWEWKHVSRGEY and TLRVLFCRTMRRVDWSVQKV are within error of each other in amyloid nucleation score: -0.033 ± 0.26 for the first, -1.03 ± 1.7 for the second.

First: TLSGSYVF
Second: TLYCTFSTWYPLYKLQHDRY
The amyloid nucleation score of the first is lower: -0.567 ± 0.3 for the first, 4.55 ± 0.14 for the second.

TMDGHLGYRSRNILLLSVFV and TMLMNEWGMLLNKWEWA are within error of each other in amyloid nucleation score: -0.41 ± 0.55 for the first, -0.398 ± 1.1 for the second.

Going from TNDEGPVRLNFNISR to TNIALLV, the amyloid nucleation score rises from -0.389 ± 0.26 to 0.847 ± 0.42.

First: TNRVHLWFVL
Second: TNRWADQTNKDAHRQTCD
The amyloid nucleation score of the first is higher: 7.57 ± 0.078 for the first, -0.591 ± 1.1 for the second.

TNYWPVIFG and TQFEFFWVPKRHSMVHNCMN are within error of each other in amyloid nucleation score: 0.116 ± 0.36 for the first, -0.337 ± 0.31 for the second.

TQVWTQRCPCKEASRPGLRT and TRAHGALYREEVKTWGSRLK are within error of each other in amyloid nucleation score: -1.19 ± 2.7 for the first, -0.998 ± 0.8 for the second.

First: TRAWNGGCGALCRITFDPSC
Second: TRDTLIWFGRFGSMTDWCSW
The amyloid nucleation score of the first is higher: 2.6 ± 0.13 for the first, 0.192 ± 0.63 for the second.

TRLGYISRDKGYSPCR and TRMGEL are within error of each other in amyloid nucleation score: -0.146 ± 0.39 for the first, -0.089 ± 0.76 for the second.

TRNMHKCCNTMTTLLSVLGS and TRSYNWARCTLSGVALGQGQ are within error of each other in amyloid nucleation score: -0.186 ± 0.75 for the first, -0.724 ± 2.4 for the second.

TRTAGRSVCPVIQLMSWAAY and TRWWGPLQFVYFPD are within error of each other in amyloid nucleation score: 0.277 ± 0.44 for the first, -0.17 ± 0.68 for the second.

TRYGECAGWSGPYIADSGSA and TSDRTKSVLMVYSWV are within error of each other in amyloid nucleation score: -0.001 ± 0.31 for the first, -0.576 ± 0.92 for the second.

TSEGHSLRNEEEGSSEGRCK and TSFWLSVKSTNPFNRRQFSD are within error of each other in amyloid nucleation score: 0.905 ± 0.51 for the first, 0.436 ± 0.35 for the second.

First: TSGPN
Second: TSLNNGKSDFLYEARVLLEF
The amyloid nucleation score of the first is lower: -0.882 ± 0.6 for the first, 0.541 ± 0.35 for the second.

For TFRFSGYSLNISFKNCEHYV, the amyloid nucleation score was “inactive”.
For TFRQVPAQFNMASRDKNSTI, the amyloid nucleation score was “inactive”.
With TGVTHC the amyloid nucleation score was “inactive”.
For TLSVFREWSCLGMLLGYHNL, the amyloid nucleation score was “inactive”.

From the supplement of paper PMC12042874
